# Measured values from paper PMC7192382.
# Test system: MtKNOX3 homeodomain (Medicago truncatula)
# Test: SPR
# Conditions: SPR: PBS (150 mM NaCl, 2 mM Na2HPO4)/Tween pH 7.4, BSA 670 ug/ml, protein 0-10 uM, temperature not stated; EMSA: LightShift binding buffer (stock as printed …)
row,Substance,Kd
1,IPT3-1 (MtIPT3 promoter site),2220 nM
2,LOG1 (MtLOG1 first intron site),555 nM
3,LOG2-1 (MtLOG2 promoter site),28000 nM
